From publication PMC7589982

Target: HPV16 E6 oncoprotein, full-length, LexA bait (pGilda/LexA) (human papillomavirus 16) (UniProt P03126)
Assay: two-hybrid; full-length HPV16 E6 in pGilda/LexA as bait; growth on medium lacking leucine, blue colonies, beta-galactosidase activity (unit) with ONPG

Chain of UniProt P03126 (P03126 whole entry): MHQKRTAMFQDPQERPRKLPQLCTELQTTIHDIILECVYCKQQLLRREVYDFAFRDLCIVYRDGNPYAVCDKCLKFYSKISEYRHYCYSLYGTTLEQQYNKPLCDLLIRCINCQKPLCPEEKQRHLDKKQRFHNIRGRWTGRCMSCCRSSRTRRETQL

IRF-1 (interferon regulatory factor-1), yeast two-hybrid prey (natural protein)
β-galactosidase activity: 88.2 unit
